{
  "source": "patent US20080076129A1",
  "about": "“Method of Detecting an Increased Susceptibility to Breast Cancer” (priority 2000, published 2008)",
  "key": {"CYP1B1 [1]": {"molecular_target": "T1, CYP1B1 (Homo sapiens, UniProt Q16678, L432V)", "T1 construct": "made in house; host or cells: Escherichia coli DH5αF′Iq", "T1 sequence (Q16678 26-543 L432V)": "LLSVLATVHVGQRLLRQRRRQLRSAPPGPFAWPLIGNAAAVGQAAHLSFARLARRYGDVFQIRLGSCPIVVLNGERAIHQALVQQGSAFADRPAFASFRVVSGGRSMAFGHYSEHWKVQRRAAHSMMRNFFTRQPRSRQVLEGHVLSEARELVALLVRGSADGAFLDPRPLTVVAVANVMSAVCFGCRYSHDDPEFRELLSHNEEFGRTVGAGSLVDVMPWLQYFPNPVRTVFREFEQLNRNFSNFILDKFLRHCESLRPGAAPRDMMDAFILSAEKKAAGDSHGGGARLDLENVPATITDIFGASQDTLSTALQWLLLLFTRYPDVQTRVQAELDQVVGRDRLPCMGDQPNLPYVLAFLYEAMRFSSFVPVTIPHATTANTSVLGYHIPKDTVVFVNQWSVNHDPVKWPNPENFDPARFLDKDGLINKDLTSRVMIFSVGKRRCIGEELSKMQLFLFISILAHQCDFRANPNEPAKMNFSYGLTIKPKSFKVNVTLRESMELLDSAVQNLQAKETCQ", "test": "Assay of CYP1B1 E2 hydroxylation activity", "format": "biochemical", "conditions": "text and FIG. 4; read-out: 2-OH-E2 hydroxylation Km", "procedure": "(§1) Assay of CYP1B1 E2 Hydroxylation Activity. Purified CYP1B1 (200 pmol) was reconstituted with a 2-fold molar amount of recombinant rat NADPH-P450 reductase (400 pmol), purified as previously described, and 60 μg of L-α-dilauroyl-sn-glycero-3-phosphocholine in the presence of sodium cholate (0.005%, w/v) in 0.4 ml of 100 mM potassium phosphate buffer, pH 7.4, containing varying concentrations of E2 (2, 3, 6, 9, 12, 15, 20, 40, 60, 80, and 100 μM) and 1 mM ascorbate. An NADPH-generating system consisting of 5 mM glucose 6-phosphate and 0.5 U of glucose-6-phosphate dehydrogenase/ml was added and reactions initiated by adding NADP+ to a final concentration of 0.5 mM. Reactions proceeded for 10 min at 37° C. with gentle shaking and then were terminated by addition of 2 ml CH2Cl2.\n(§2) Extraction and Gas Chromatography/Mass Spectrometry Analysis of E2 and Metabolites. A deuterated internal standard (100 μl of 8 mg/liter E2-2, 4, 16, 16-d4 in methanol; CDN Isotopes, Pointe-Claire, Quebec) was added and all steroids extracted into CH2Cl2 by vortex mixing for 30 s. 1.5 ml of the CH2Cl2 fraction was evaporated to dryness under air and volatile TMS derivatives prepared by heating the residue with 100 μl of 50% NO-bis(trimethylsilyl)trifluoroacetamide/1% trimethyl chlorosilane in acetonitrile at 56° C. for 30 min. The TMS derivatives of E2 and its metabolites were separated by gas chromatography (H-P 5890, Hewlett-Packard, Wilmington, Del.) on a 5% phenyl methyl silicone stationary phase fused silica capillary column (30 m×0.2 mm×0.5 μm film, HP5; Hewlett-Packard). Helium carrier gas was used at a flow of 1 ml/min. The injector was operated at 250° C., with 2 μl injected in the splitless mode, with a purge (60 ml/min helium) time of 0.6 min. The oven temperature was held at 189° C. for 0.5 min, then raised at 6° C./min to 250° C. where it was held for 17 min, then raised to 300° C. at 8° C./min to give a total run time of 35.42 min. […] The EI mass spectrometer (H-P 5970) was operated in the selected ion monitoring mode from 18 to 34 min. Ions monitored were TMS2-E2-d4 420, 288, 330; TMS2-E2 416, 285, 326; TMS3-2-OH-E2 504, 373; TMS3-4-OH-E2 504, 373, 325; TMS3-16α-OH-E2 345, 311, 504. The instrument was calibrated by simultaneous preparation of an 11-point calibration over the range […]/tube of each compound. […] Internal standard added prior to extraction compensated for deviation from 100% recovery.\n(§3) Statistical Analysis. Kinetic parameters (Km and kcat) were determined by nonlinear regression analysis using the computer program GraphPad PRISM (San Diego, Calif.)."}, "CYP1B1 [2]": {"tested_on": "CYP1B1", "test": "Assay of CYP1B1 E2 hydroxylation activity", "format": "biochemical, human", "conditions": "for 2-OH-Estradiol kcat: E2 2-hydroxylation; for 4-OH-Estradiol kcat: E2 4-hydroxylation; for 16a-OH-Esrradiol kcat: E2 16α-hydroxylation", "procedure": "as §1, §2, §3"}},
  "data": [
    {"molecule": "Wild type: purified recombinant His-tagged CYP1B1 with 48Arg, 119Ala, 432Val, 453Asn (protein) HHHHHHLLSVLATVHVGQRLLRQRRRQLRSAPPGPFAWPLIGNAAAVGQAAHLSFARLARRYGDVFQIRLGSCPIVVLNGERAIHQALVQQGSAFADRPAFASFRVVSGGRSMAFGHYSEHWKVQRRAAHSMMRNFFTRQPRSRQVLEGHVLSEARELVALLVRGSADGAFLDPRPLTVVAVANVMSAVCFGCRYSHDDPEFRELLSHNEEFGRTVGAGSLVDVMPWLQYFPNPVRTVFREFEQLNRNFSNFILDKFLRHCESLRPGAAPRDMMDAFILSAEKKAAGDSHGGGARLDLENVPATITDIFGASQDTLSTALQWLLLLFTRYPDVQTRVQAELDQVVGRDRLPCMGDQPNLPYVLAFLYEAMRFSSFVPVTIPHATTANTSVLGYHIPKDTVVFVNQWSVNHDPLKWPNPENFDPARFLDKDGLINKDLTSRVMIFSVGKRRCIGEELSKMQLFLFISILAHQCDFRANPNEPAKMNFSYGLTIKPKSFKVNVTLRESMELLDSAVQNLQAKETCQ", "values": [
      {"measurement": "Km", "setting": "CYP1B1 [1]", "result": "34 ± 4", "unit": "µM"},
      {"measurement": "2-OH-Estradiol kcat", "setting": "CYP1B1 [2]", "result": "0.0317 ± 0.0017", "unit": "s⁻¹"},
      {"measurement": "2-OH-Estradiol kcat", "setting": "CYP1B1 [2]; listed as Wild type CYP1B1", "result": "0.0317 ± 0.0017", "unit": "s⁻¹"},
      {"measurement": "2-OH-Estradiol kcat", "setting": "CYP1B1 [2]; listed as wild type CYP1B1", "result": "0.0317 ± 0.0017", "unit": "s⁻¹"},
      {"measurement": "4-OH-Estradiol kcat", "setting": "CYP1B1 [2]", "result": "0.0733 ± 0.0067", "unit": "s⁻¹"},
      {"measurement": "4-OH-Estradiol kcat", "setting": "CYP1B1 [2]; listed as Wild type CYP1B1", "result": "0.0733 ± 0.0067", "unit": "s⁻¹"},
      {"measurement": "4-OH-Estradiol kcat", "setting": "CYP1B1 [2]; listed as wild type CYP1B1", "result": "0.0733 ± 0.0067", "unit": "s⁻¹"},
      {"measurement": "16a-OH-Esrradiol kcat", "setting": "CYP1B1 [2]", "result": "0.005 ± 0.00033", "unit": "s⁻¹"},
      {"measurement": "16a-OH-Esrradiol kcat", "setting": "CYP1B1 [2]; listed as Wild type CYP1B1", "result": "0.005 ± 0.00033", "unit": "s⁻¹"},
      {"measurement": "16a-OH-Esrradiol kcat", "setting": "CYP1B1 [2]; listed as wild type CYP1B1", "result": "0.005 ± 0.00033", "unit": "s⁻¹"}
    ]}
  ]
}
